Consider one molecule from paper doi:10.1101/2024.06.02.597006 (bioRxiv, 2024).

Series [1] concerns the molecule itself. Description: cryo-EM structure.
Series [2] deals with T1, Pex5 (full-length yeast Pex5, 1-612), His-Sumo cleaved off (Saccharomyces cerevisiae, UniProt P35056 1-612).
T1 sequence (looked up): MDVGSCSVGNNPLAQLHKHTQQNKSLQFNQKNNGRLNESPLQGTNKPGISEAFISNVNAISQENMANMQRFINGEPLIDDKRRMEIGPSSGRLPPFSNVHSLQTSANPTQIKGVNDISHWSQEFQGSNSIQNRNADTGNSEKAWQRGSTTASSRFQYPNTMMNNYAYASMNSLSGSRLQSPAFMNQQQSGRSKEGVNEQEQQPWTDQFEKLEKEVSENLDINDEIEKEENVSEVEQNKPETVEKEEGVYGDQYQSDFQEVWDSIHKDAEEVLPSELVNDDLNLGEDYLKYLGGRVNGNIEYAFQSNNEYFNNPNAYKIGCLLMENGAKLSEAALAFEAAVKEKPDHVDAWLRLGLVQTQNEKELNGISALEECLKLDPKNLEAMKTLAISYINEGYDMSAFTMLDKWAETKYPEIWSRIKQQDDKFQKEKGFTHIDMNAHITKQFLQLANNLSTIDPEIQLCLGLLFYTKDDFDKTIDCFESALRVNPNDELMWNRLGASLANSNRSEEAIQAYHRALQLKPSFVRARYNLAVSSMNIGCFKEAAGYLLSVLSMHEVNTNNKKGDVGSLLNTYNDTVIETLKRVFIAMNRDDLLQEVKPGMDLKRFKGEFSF
The series can be described thus: cryo-EM structure.

B1: FLAG-Eci1 (yeast delta3, delta2-Enoyl-CoA Isomerase 1) (enzyme, Saccharomyces cerevisiae (yeast), UniProt Q05871 1-280, looked up)
chain: MSQEIRQNEKISYRIEGPFFIIHLMNPDNLNALEGEDYIYLGELLELADRNRDVYFTIIQSSGRFFSSGADFKGIAKAQGDDTNKYPSETSKWVSNFVARNVYVTDAFIKHSKVLICCLNGPAIGLSAALVALCDIVYSINDKVYLLYPFANLGLITEGGTTVSLPLKFGTNTTYECLMFNKPFKYDIMCENGFISKNFNMPSSNAEAFNAKVLEELREKVKGLYLPSCLGMKKLLKSNHIDAFNKANSVEVNESLKYWVDGEPLKRFRQLGSKQRKHRL
As to B1, the “stoichiometry N” value in series [1] was 6; in series [2], 6 Eci1 per Pex5.
